From patent US20130004519A1 come the findings set out here.

For test [1], the target named is His-tagged human tenascin-C (human) (UniProt P24821). The experiment in a line: pull-down on tenascin-C-Sepharose 4B, spectral counting normalized to background proteins.
The target is the same in test [2]. The experiment in a line: pull-down from HEK293 conditioned medium on tenascin-C-Sepharose 4B, nanoLC-MSMS.
The target is the same in test [3]. The experiment in a line: pull-down on tenascin-C-Sepharose 4B, multiple reaction monitoring.
Test [4] deals with horse fibronectin coupled to CNBr-activated Sepharose 4B (horse) (UniProt Q28377). The test is described as follows: pull-down from HEK293 conditioned medium on horse fibronectin-Sepharose 4B, nanoLC-MSMS.
horse fibronectin coupled to CNBr-activated Sepharose 4B (horse), sequence (Q28377 32-2477 limits assumed): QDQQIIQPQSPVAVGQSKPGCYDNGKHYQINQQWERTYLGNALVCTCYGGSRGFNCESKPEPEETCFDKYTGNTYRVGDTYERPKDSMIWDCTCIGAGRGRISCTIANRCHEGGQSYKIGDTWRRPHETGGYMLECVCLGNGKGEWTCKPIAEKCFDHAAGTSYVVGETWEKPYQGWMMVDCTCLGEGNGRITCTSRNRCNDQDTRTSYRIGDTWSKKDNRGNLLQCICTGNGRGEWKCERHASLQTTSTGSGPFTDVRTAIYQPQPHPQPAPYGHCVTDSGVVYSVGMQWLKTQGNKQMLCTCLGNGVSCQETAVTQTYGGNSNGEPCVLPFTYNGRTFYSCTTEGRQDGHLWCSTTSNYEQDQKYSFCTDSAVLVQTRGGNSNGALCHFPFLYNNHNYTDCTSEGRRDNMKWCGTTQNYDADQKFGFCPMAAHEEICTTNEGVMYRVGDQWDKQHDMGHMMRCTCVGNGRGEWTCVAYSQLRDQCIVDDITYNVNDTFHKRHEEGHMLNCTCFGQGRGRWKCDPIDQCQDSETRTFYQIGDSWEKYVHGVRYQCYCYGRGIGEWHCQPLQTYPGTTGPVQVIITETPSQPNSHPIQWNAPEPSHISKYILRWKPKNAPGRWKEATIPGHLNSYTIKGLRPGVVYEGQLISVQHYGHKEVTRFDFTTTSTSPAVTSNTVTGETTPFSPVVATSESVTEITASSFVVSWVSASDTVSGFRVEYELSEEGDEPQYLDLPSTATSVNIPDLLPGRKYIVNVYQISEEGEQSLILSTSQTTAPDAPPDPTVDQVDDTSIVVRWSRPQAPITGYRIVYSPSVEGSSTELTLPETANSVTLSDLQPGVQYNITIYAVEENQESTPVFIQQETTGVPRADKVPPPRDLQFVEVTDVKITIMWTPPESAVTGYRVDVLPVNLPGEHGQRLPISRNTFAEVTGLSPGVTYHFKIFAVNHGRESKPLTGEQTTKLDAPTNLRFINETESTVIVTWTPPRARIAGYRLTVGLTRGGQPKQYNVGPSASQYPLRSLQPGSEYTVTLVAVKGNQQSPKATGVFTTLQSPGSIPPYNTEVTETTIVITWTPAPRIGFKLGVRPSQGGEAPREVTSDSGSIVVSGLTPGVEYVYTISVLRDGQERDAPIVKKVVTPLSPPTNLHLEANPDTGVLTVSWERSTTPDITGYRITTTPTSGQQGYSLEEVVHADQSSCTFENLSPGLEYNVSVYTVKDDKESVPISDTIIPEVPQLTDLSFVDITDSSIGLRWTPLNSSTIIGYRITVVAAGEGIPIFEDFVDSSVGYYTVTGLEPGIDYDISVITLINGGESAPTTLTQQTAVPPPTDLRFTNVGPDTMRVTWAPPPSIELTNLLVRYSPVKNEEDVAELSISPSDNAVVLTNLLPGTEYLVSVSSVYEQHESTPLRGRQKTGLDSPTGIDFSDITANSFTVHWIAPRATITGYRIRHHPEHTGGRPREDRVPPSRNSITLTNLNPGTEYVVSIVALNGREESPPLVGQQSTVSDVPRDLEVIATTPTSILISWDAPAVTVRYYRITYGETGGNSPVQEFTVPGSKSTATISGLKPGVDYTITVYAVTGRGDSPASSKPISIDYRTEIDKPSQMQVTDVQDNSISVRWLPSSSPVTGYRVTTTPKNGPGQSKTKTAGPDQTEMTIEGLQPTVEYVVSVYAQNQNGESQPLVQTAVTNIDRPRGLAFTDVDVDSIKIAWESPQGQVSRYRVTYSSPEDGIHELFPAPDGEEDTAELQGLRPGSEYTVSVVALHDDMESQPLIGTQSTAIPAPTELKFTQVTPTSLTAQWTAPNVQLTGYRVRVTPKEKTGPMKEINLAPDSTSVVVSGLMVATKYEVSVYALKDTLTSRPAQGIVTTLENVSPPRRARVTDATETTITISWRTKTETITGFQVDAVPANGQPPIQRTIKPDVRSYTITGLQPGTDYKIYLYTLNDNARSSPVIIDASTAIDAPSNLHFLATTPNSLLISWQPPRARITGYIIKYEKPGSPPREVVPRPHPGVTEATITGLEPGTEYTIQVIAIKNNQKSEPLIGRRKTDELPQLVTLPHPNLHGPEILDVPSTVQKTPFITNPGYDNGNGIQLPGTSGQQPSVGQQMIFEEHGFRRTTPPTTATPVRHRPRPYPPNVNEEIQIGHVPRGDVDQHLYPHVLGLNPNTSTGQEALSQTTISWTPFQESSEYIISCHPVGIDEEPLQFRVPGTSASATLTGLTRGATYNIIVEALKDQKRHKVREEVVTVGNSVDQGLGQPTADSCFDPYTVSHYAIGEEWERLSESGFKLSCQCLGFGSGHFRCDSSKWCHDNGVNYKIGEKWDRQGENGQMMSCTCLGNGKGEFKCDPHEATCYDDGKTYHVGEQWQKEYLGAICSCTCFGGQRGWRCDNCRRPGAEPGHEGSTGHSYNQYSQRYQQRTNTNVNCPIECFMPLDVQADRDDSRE
The target is the same in test [5]. The test is described as follows: pull-down from HEK293 conditioned medium on horse fibronectin-Sepharose 4B, nanoLC-MSMS; listed as background protein (control column count 44).
Test [6] has the same target. The test is described as follows: pull-down from HEK293 conditioned medium on horse fibronectin-Sepharose 4B, nanoLC-MSMS; listed as background protein (control column score 720).
Test [7] concerns the target His-tagged human tenascin-C (human) (UniProt P24821). The test is described as follows: pull-down from HEK293 conditioned medium on tenascin-C-Sepharose 4B, nanoLC-MSMS; listed as background protein (control column score 720).
The target is the same in test [8]. The test is described as follows: pull-down from HEK293 conditioned medium on tenascin-C-Sepharose 4B, nanoLC-MSMS; listed as background protein (control column count 44).
For test [9] the target is unchanged. The experiment in a line: pull-down from HEK293 conditioned medium on tenascin-C-Sepharose 4B, nanoLC-MSMS; listed as background protein (control column score 833).
The target of test [10] is horse fibronectin coupled to CNBr-activated Sepharose 4B (horse) (UniProt Q28377). The test is described as follows: pull-down from HEK293 conditioned medium on horse fibronectin-Sepharose 4B, nanoLC-MSMS; listed as background protein (control column count 32).
Test [11] has as its target His-tagged human tenascin-C (human) (UniProt P24821). The test is described as follows: pull-down from HEK293 conditioned medium on tenascin-C-Sepharose 4B, nanoLC-MSMS; listed as background protein (control column count 32).
Test [12] addresses horse fibronectin coupled to CNBr-activated Sepharose 4B (horse) (UniProt Q28377). The test is described as follows: pull-down from HEK293 conditioned medium on horse fibronectin-Sepharose 4B, nanoLC-MSMS; listed as background protein (control column score 833).

His-tagged human tenascin-C (human), sequence (P24821 23-2201): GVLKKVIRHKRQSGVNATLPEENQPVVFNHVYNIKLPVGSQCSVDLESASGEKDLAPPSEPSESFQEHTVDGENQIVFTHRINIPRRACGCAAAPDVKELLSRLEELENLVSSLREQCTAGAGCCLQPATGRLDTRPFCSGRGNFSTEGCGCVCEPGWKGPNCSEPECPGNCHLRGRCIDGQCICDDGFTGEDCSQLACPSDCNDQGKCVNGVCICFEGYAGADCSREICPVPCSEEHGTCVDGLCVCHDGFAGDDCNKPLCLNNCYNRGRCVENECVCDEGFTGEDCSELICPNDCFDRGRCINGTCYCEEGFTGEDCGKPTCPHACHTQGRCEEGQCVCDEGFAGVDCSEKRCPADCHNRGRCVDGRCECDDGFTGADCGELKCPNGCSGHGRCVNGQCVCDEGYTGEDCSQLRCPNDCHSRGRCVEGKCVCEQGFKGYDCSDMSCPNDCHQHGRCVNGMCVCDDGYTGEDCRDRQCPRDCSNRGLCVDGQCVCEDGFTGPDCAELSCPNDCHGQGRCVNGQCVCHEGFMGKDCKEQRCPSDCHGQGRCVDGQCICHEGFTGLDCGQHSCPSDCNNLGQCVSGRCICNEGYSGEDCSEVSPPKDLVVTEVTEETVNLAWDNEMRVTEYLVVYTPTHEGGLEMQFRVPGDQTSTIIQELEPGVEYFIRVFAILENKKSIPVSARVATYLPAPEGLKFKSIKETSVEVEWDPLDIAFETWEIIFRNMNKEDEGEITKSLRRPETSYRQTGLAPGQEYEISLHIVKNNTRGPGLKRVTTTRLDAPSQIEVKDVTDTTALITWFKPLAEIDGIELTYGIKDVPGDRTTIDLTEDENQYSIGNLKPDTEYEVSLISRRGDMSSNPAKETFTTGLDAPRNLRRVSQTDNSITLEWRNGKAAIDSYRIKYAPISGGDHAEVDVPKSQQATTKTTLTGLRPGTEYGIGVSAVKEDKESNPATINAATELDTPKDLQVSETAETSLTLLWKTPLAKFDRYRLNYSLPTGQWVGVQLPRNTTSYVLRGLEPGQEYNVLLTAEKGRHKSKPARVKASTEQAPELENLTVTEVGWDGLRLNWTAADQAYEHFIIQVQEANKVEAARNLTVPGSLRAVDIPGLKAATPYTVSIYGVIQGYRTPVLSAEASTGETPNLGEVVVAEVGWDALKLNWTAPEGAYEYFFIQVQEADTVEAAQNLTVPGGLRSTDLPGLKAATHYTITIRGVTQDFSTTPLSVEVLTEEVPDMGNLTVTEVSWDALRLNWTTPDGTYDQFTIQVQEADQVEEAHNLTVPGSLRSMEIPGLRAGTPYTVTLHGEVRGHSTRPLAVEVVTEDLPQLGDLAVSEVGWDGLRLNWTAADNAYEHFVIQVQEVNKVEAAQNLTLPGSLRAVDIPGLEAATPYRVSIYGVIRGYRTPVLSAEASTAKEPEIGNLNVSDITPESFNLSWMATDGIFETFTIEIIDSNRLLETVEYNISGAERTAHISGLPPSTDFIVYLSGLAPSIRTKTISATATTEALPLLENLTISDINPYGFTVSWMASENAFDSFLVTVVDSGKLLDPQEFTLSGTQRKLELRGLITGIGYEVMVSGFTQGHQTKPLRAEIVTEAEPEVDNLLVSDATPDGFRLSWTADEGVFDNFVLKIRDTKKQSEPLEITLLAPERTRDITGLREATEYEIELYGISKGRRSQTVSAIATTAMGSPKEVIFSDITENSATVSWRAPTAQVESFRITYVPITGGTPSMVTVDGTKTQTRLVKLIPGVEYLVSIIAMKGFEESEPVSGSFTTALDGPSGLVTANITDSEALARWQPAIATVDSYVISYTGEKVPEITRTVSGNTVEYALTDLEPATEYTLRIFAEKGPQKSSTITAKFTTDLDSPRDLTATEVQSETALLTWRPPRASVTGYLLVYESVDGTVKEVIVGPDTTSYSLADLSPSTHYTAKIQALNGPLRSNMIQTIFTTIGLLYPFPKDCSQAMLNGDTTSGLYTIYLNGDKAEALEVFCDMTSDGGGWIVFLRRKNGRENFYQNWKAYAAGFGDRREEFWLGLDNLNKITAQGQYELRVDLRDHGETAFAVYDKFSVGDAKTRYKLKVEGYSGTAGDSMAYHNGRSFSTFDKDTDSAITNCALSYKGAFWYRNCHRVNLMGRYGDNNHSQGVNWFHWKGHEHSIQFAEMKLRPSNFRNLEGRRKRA

In the case of Clusterin (from UniProt P10909 23-449), the normalized enrichment (spectrum count), tenascin-C against control in [1] was 4.2 fold. In test [2], this substance returned an MASCOT Score (tenascin-C) of 258 and a spectrum count (tenascin-C) of 11. In addition, the normalized enrichment (MRM), tenascin-C against control in test [3] came to 2.1 fold.

Take “Fibronectin from HEK293 conditioned medium (from UniProt P02751 32-2477)”: in [4], the MASCOT Score (fibronectin) worked out at 2210 and the spectrum count (fibronectin) was determined as 135.

On to “Fibronectin from HEK293 conditioned medium, P02751 32-2477”, for which the normalized enrichment (spectrum count), tenascin-C against control in test [1] worked out at 19.2 fold. Besides, in test [2], the MASCOT Score (tenascin-C) was determined as 544 and the spectrum count (tenascin-C) came to 25. In test [3], this substance yielded a normalized enrichment (MRM), tenascin-C against control of 4.8 fold.

For the substance Nidogen-2 (from UniProt Q14112 31-1375), the normalized enrichment (spectrum count), tenascin-C against control in test [1] turned out to be 5.8 fold. In test [2], the MASCOT Score (tenascin-C) was 437 and the spectrum count (tenascin-C) worked out at 15. Moreover, the normalized enrichment (MRM), tenascin-C against control in [3] worked out at 2.2 fold.

The substance “Peptidyl-prolyl cis-trans isomerase A (PPIA) from HEK293 conditioned medium (from UniProt P62937 2-165) (enzyme)” yielded a spectrum count (fibronectin) in test [5] of 36. For the same substance, in test [6], the MASCOT Score (fibronectin) turned out to be 676. Also, the MASCOT Score (tenascin-C) in test [7] is 675. The substance further yielded a spectrum count (tenascin-C) in test [8] of 56.

The substance “Phosphoglycerate kinase 1 (from UniProt P00558 2-417) (enzyme)” came in with a normalized enrichment (spectrum count), tenascin-C against control in [1] of 3.3 fold. In [2], this substance yielded an MASCOT Score (tenascin-C) of 402 and a spectrum count (tenascin-C) of 26. The substance also gave a normalized enrichment (MRM), tenascin-C against control in test [3] of 1.2 fold.

Consider “alpha-enolase (ENOA) from HEK293 conditioned medium (from UniProt P06733 2-434) (enzyme)”, for which the MASCOT Score (tenascin-C) in [9] was 1040. The substance also had a spectrum count (fibronectin) in [10] of 26. The substance also yielded a spectrum count (tenascin-C) in test [11] of 42. In addition, the MASCOT Score (fibronectin) in test [12] was 701.
